Source: patent US12624112 (MABWELL SHANGHAI BIOSCIENCE, dated 2026)

T1: ST2 on the effector cells (KU812, KU812/NF-κB-1#, HUVEC, HMC-1) (human, UniProt Q01638 19-556)
T1 sequence (looked up): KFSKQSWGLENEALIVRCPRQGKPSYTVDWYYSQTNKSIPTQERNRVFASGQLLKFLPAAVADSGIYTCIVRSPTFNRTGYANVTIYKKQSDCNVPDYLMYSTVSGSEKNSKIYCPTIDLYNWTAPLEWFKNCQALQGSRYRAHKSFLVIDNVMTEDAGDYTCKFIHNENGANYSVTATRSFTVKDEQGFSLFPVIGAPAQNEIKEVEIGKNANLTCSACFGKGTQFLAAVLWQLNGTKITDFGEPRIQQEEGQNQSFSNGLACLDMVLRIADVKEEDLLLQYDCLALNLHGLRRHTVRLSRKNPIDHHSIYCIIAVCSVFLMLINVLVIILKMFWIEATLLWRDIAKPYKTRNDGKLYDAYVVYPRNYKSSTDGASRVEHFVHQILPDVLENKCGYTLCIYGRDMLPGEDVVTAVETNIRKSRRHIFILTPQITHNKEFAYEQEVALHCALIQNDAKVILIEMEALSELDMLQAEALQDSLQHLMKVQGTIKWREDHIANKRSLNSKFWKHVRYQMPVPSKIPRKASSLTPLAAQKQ

T2: Human ST2-his (human, UniProt Q01638-2 19-328, limits assumed)
T2 construct: Expressed in CHO-K1; The printed range starts at Met1; also called human ST2 fused with a 6-histidine tag at the C-terminus
T2 sequence: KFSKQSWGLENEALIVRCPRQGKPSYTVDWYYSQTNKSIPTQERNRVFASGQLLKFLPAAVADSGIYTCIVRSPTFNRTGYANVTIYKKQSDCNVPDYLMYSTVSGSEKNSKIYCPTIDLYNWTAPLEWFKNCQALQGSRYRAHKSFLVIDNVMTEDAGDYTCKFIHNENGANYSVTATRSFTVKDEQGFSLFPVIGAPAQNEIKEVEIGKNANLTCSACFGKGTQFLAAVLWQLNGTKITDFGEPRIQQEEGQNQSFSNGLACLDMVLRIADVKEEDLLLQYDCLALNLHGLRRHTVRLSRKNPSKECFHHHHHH


What was measured:
[1] = target: T1, ST2 on the effector cells (KU812, …); experiment: cell-based or functional assay
Human ST2-his [2] = target: T2, Human ST2-his; experiment: SPR Biacore X100, ratio of kd at pH 5.5 to kd at pH 7.4
Description: (§1) The experiment on the interaction between the anti-human ST2 antibodies and human ST2-his was performed using Biacore X100.
(§2) Each anti-human ST2 antibody was diluted to 2 µg/mL and captured on the surface of a protein A chip for a capture time of 60 s. Following the antibody capture, a solution of human ST2-his (2-fold gradient dilution from a starting concentration of 20 nM, to obtain 6 concentrations in total) was injected. Association was monitored for 180 s and dissociation was monitored for 700 s, and the sensor surface was regenerated by injecting a solution of glycine at pH 2.0. Kinetic data were analyzed using a simple 1:1 binding model.

[3] = target: T1, ST2 on the effector cells (KU812, …); experiment: cell-based or functional assay; remark: listed apart in the source
Human ST2-his [4] = target: T2, Human ST2-his; experiment: SPR Biacore X100, antibody captured on protein A chip, human ST2-his injected, dissociation at pH 5.5
Description: as §1, §2

[5] = target: T1, ST2 on the effector cells (KU812, …); experiment: cell-based or functional assay; remark: listed apart in the source
[6] = target: T1, ST2 on the effector cells (KU812, …); experiment: cell-based or functional assay; remark: listed apart in the source
Human ST2-his [7] = target: T2, Human ST2-his; experiment: SPR Biacore X100, antibody captured on protein A chip, human ST2-his injected, pH 7.4
Description: as §1, §2

[8] = target: T1, ST2 on the effector cells (KU812, …); experiment: cell-based or functional assay; remark: listed apart in the source
[9] = target: T1, ST2 on the effector cells (KU812, …); experiment: cell-based or functional assay; remark: listed apart in the source
Human ST2-fc (human) = Human ST2-fc (human) (UniProt Q01638); experiment: competition ELISA, coated ST2-fc, competitor IL33-his

Row | IC50, inhibition of KU812-IL5 production promoted by reduced IL33 [1] [µg/mL] | Maximum inhibition rate, KU812-IL5 production by reduced IL33 [1] [%] | Relative activity, KU812-IL5 production by reduced IL33 [1] [%] | kd ratio of pH 5.5/pH 7.4 (Human ST2-his [2]) | IC50, inhibition of KU812-IL5 production promoted by IL-33 (human IL33-his) [3] [µg/mL] | Maximum inhibition rate, KU812-IL5 production by IL-33 [3] [%] | Relative activity compared with CNTO7160, KU812-IL5 production by IL-33 [3] [%] | Kd (Human ST2-his [4]) [nM] | koff (Human ST2-his [4]) [s⁻¹] | kon (Human ST2-his [4]) [M⁻¹ s⁻¹] | IC50, inhibition of HUVEC-IL6 production promoted by IL33 [5] [µg/mL] | Maximum inhibition rate, HUVEC-IL6 production by IL33 [5] [%] | Relative activity, HUVEC-IL6 production by IL33 [5] [%] | IC50, inhibition of KU812-IL5 production promoted by oxidized IL33 [6] [µg/mL] | Maximum inhibition rate, KU812-IL5 production by oxidized IL33 [6] [%] | Relative activity, KU812-IL5 production by oxidized IL33 [6] [%] | Kd (Human ST2-his [7]) [nM] | koff (Human ST2-his [7]) [s⁻¹] | kon (Human ST2-his [7]) [M⁻¹ s⁻¹] | IC50, inhibition of HMC-1 IL8 production promoted by IL33 [8] [µg/mL] | Binder | further results
1 | 0.752 | 93.4 | 195 | 1.03 | 0.0354 | 98.1 | 181 | 0.276 | 0.000279 | 1.01e+06 | 4.05 | 87.9 | 67.3 | 0.0285 | 101 | 77.5 | 0.275 | 0.000272 | 990000 | 0.177 | 5886-156-H1L0 (antibody, human IgG4 S228P, kappa, V domains shown, Humanized antibody expressed in CHO-K1, purified by protein A) VH: QVQLQESGPGLVKPSQTLSLTCTVSGYSITSDYAWNWIRQPPGKGLEWIGYIDYSGSTTYNPSLKSRVTISRDTSKNQFSLKLSSVTAADTAVYYCASTVIDSMDYWGQGTLVTVSS VL: DIVLTQSPASLAVSPGQRATITCRASKSVSTSGHSYMHWYQQKPGQPPKLLIYLASNLESGVPARFSGSGSGTDFTLTINPVEANDTANYYCQHSREFPFTFGQGTKVEIKR | Maximum inhibition rate, HMC-1 IL8 production by IL33 [8]: 81%; Relative activity, HMC-1 IL8 production by IL33 [8]: 56.9%; IC50, inhibition of activation of KU812-NF-κB reporter gene by IL33 [9]: 0.478 µg/mL; Maximum inhibition rate, KU812-NF-κB reporter gene [9]: 92.5%; Relative activity compared with CNTO7160, KU812-NF-κB reporter gene [9]: 41.9%; IC50 (Human ST2-fc (human)): 1.22 µg/mL; Maximum inhibition rate (Human ST2-fc (human)): 89.2%; Relative activity compared with CNTO7160 (Human ST2-fc (human)): 103%
2 | 0.706 | 78.6 | 208 | 1 | 0.0699 | 97.3 | 91.7 | 0.161 | 0.0001 | 622000 | 1.31 | 93.2 | 208 | 0.0337 | 101 | 65.4 | 0.214 | 9.98e-05 | 467000 | 0.123 | 5887-41-H1L0 (antibody, human IgG4 S228P, kappa, V domains shown, Humanized antibody) VH: QVQLQESGPGLVKPSQTLSLTCTVSGYSITSDYAWDWIRQPPGKGLEWIGYIRYSGDTYYNPSLKSRVTISRDTSKNQFSLKLSSVTAADTAVYYCATTMMDTMDYWGQGTLVTVSS VL: DIVLTQSPASLAVSPGQRATITCRASKSVSTSGNSYMHWYQQKPGQPPKLLIYLASNLESGVPARFSGSGSGTDFTLTINPVEANDTANYYCQHSREFPLTFGQGTKLEIKR | Maximum inhibition rate, HMC-1 IL8 production by IL33 [8]: 77.8%; Relative activity, HMC-1 IL8 production by IL33 [8]: 81.6%; IC50, inhibition of activation of KU812-NF-κB reporter gene by IL33 [9]: 0.0554 µg/mL; Maximum inhibition rate, KU812-NF-κB reporter gene [9]: 89.2%; Relative activity compared with CNTO7160, KU812-NF-κB reporter gene [9]: 362%; IC50 (Human ST2-fc (human)): 0.58 µg/mL; Maximum inhibition rate (Human ST2-fc (human)): 92.8%; Relative activity compared with CNTO7160 (Human ST2-fc (human)): 216%
3 | 0.124 | 75.1 | 1180 | 3.02 | 0.00929 | 98.3 | 656 | 0.474 | 0.0014 | 2.95e+06 | 0.832 | 92.6 | 328 | 0.0036 | 102 | 614 | 0.259 | 0.000464 | 1.79e+06 | 0.00551 | 5888-116-H0L1 (antibody, human IgG4 S228P, kappa, V domains shown, Humanized antibody) VH: QVQLVQSGAEVKKPGASVKVSCKASGYTFTDSEMYWVRQAPGQGLEWMGAIDPETGDTAFNQKFKGRVTMTRDTSTSTVYMELSSLRSEDTAVYYCARAFDNDNDDGFAYWGQGTMVTVSS VL: DIQMTQSPSSLSASVGDRVTITCSASSSVNYMHWYQQKPGKAPKRLIYDTSKLASGVPSRFSGSGSGTDYTFTISSLQPEDAATYYCQQWSSNPLTFGQGTKLEIKR | Maximum inhibition rate, HMC-1 IL8 production by IL33 [8]: 90.6%; Relative activity, HMC-1 IL8 production by IL33 [8]: 1830%; IC50, inhibition of activation of KU812-NF-κB reporter gene by IL33 [9]: 0.013 µg/mL; Maximum inhibition rate, KU812-NF-κB reporter gene [9]: 95.7%; Relative activity compared with CNTO7160, KU812-NF-κB reporter gene [9]: 1540%; IC50 (Human ST2-fc (human)): 0.0204 µg/mL; Maximum inhibition rate (Human ST2-fc (human)): 94.1%; Relative activity compared with CNTO7160 (Human ST2-fc (human)): 5200%
4 | 2.87 | 96.7 | 51.1 | 11.9 | 0.0839 | 98 | 121 | 1.67 | 0.00575 | 3.46e+06 | 26.1 | 71.6 | 10.4 | 0.0228 | 101 | 96.8 | 0.495 | 0.000485 | 979000 | 0.23 | 5888-379-H2L1 (antibody, human IgG4 S228P, kappa, V domains shown, Humanized antibody) VH: QVQLVQSGAEVKKPGASVKVSCKASGYTFINYGMNWVRQAPGQRLEWMGWINTYIGEPTYGDNFKGRVTITRDTSASTAYMELSSLRSEDTAVYYCAREGDAFAYWGQGTLVTVSS VL: DIQMTQSPSSLSASVGDRVTITCKSSQSLLYSGNQNNYLAWYQQKPGKVPKLLIYGASTRESGVPSRFSGSGSGTDFTLTISSLQPEDLATYYCQNDHSYPYTFGGGTKVEIKR | Maximum inhibition rate, HMC-1 IL8 production by IL33 [8]: 90.2%; Relative activity, HMC-1 IL8 production by IL33 [8]: 43.8%; IC50 (Human ST2-fc (human)): 0.427 µg/mL; Maximum inhibition rate (Human ST2-fc (human)): 84.8%; Relative activity compared with CNTO7160 (Human ST2-fc (human)): 206%
